# Reference: patent publication US20250186623A1, “EXPRESSION SYSTEM FOR THE TREATMENT OF CANCER” (FUNDACION PARA LA INVESTIGACION MEDICA APLICADA, priority 2022, published 2025)
# B1: CXCL9-promoter: CXCL9-promoter according to SEQ ID NO: 23 (nucleic acid, listed as Mus musculus)
# DNA: GACACAGACATCTCGTGAAACATCTGGAAAAGGTAGCAGGGAACGGGACAGCAGTAGCTTATGCAACTAATCTAGCAATTACAATGATAGGAAACTGTAGCCACGGTGAGACGAAATGGATTTACCCTCAACAAATTAAGAAGCTTTGACTTGTGAGGAAAGGCAGTTTGAGTCGCCATATAGTGTCATGTCCCACGTGGGAAGTACATCTCCAACCTTCATTGTACAACATTAATATAGTCATTGTATAATCTATTCCACATCCAGGTAGCAACTTTGCCTGGGGGTGGTTTCACATCCCTTACTATAAACTCCCCGTTTATGTGAAATGGAAGTAGAACATGCAGAAATTCCCTGGGATCTGAGAGTAGGGTTTTCCCCAGGACGATCAATTTGTGGTTAGTTTAGTTCTTCTAGGTCAGCTGAGGAGACCAGCCAATCAGAGACGGGAAGGAAAAGGGATTTCCTAAATAAATATGATCCCCAAGAACATGCTCTCTAAAGACATTCTCGGACTTCACTCCAACACAGTGACTCAATAGAACTCAGCTCTGCC
# modifications: misc_feature 1..556 CXCL9-promoter
# B2: IFN-β-promoter: full length IFN-β-promoter according to SEQ ID NO: 25 (nucleic acid, listed as Mus musculus)
# DNA: CCAGGATGTGGGGTTCTCTCCCAAAGGGAGCTATGGCCCATTGATGTGCCATTTCTCTTATAGTACACTATTGTAAGCCCCCTGGGAGCTCACAGAGACCCTCTCCCACCATCCCACTATTTCAAAGGGCAGCAGCTGTGCCATCCTTTCAGGATGAGCAGCTACTCTGCCTGGCTTTTCAGTGGACACTTTGGCTGTTTGAGAGTTCTTTTATCTTCAGGGCTGTCTCCTTTCTGTTCTTCTCTCCTGGATATTTCTCTTCCTTTGCTCCAGCAATTGGTGAAACTGTACAAGATTTTATAAATCCTTAGTTTGTATATATTTTAACCCAGTACATAGCATATAAAATAGCCAGGAGCTTGAATAAAATGAATATTAGAAGCTGTTAGAATAAGAGAAAATGACAGAGGAAAACTGAAAGGGAGAACTGAAAGTGGGAAATTCCTCTGAGGCAGAAAGGACCATCCCTTATAAATAGCACAGGCCATGAAGGAAGATCATTCTCACTGCAGCCTTTGACAGCCTTTGCCTCATCTTGCAGGTAGCAGCCGACACCAGCCTGGCTTCCATC
# modifications: misc_feature 1..571 IFNb1-promoter
# Assays:
# [1] = tested on: MC38 cell lines stably expressing hSTINGmut; assay: Luciferase activity under chemokine promoters; format: cell-based, murine
# From the text: Therefore, the objective of this experiment was to examine the specificity of these promoters in their response to DMXAA-induced STING activity.
# The CXCL9-promoter (CXCL9 according to SEQ ID NO: 23) and the CXCL10-promoter (CXCL10 according to SEQ ID NO: 24) were used for the following experiment. To this end, lentiviral vectors encoding luciferase under the control of these two different promoters were constructed. […] In addition, the lentiviral vectors encoding the short IFN-β A promoter, the short IFN-β B promoter, the short IFN-β C promoter described in experiment 1 were used as a comparison. […] After another 3 or 6 h, cells were harvested and luciferase activity measured as described in experiment 1.
# [2] = tested on: MC38 cell lines stably expressing hSTINGmut; assay: scIL-12 mRNA (qPCR) and secreted protein (ELISA) under STING-activity dependent promoters; format: cell-based, murine; settings: DMXAA 50 μg/mL
# From the text: The CXCL9-promoter and the CXCL10-promoter from experiment 2, and a full length IFN-β-promoter (IFN-β according to SEQ ID NO: 25) were used for the following experiment. To this end, lentiviral vectors encoding murine scIL-12 under the control of these three different promoters were constructed. […] After the indicated time points, cells were harvested. The cell lysate was used to measure scIL-12 mRNA expression by qPCR as described before (example 1, experiment 1), whereas the supernatant was used to measure secreted scIL-12 protein in NUNC MaxiSorp flat-bottom 96-well plates using an ELISA assay kit (OptEIA, Mouse IL-12 (p70), BD Biosciences, San Diego, CA USA), following manufacturer's instructions.
Molecule,"luciferase activity upon DMXAA administration ([1]; DMXAA 50 μg/mL, 3 or 6 h)",luciferase activity in the absence of DMXAA (leaky expression) ([1]; vehicle),scIL-12 mRNA or protein expression upon DMXAA treatment [2]
B1,significantly higher luciferase activities,significant luciferase activity,poor
B2,–,–,poor
